The record followed here is doi:10.1101/2024.05.10.593077.

Several values for one entry are separate records, joined by “and”; a condition that tells them apart may be missing. Equal entries are not always repeated.

Test [1] has as its target Human FcγRI (WT) (human) (UniProt P12314). Kind of test: SPR. In general terms: SPR reads the build-up and loss of mass on a sensor chip optically.
For test [2] the target is unchanged. Kind of test: high-speed atomic force microscopy.
Test [3] deals with Trastuzumab ΔP230 (IgG1 with deletion of Pro230 in the lower hinge) (human). Kind of test: SEC.

Sequence of UniProt P12314 (P12314 16-292): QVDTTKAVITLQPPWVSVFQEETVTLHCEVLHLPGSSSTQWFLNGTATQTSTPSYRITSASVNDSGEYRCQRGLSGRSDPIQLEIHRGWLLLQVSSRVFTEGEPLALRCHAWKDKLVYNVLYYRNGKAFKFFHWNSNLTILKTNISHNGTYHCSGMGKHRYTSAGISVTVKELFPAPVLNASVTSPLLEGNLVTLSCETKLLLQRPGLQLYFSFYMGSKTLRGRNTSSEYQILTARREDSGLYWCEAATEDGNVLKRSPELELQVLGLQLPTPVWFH

The Kd is the constant that tells how readily two partners part at equilibrium. A high value points to a looser complex. As to “Trastuzumab WT, anti-HER2 humanized IgG1 (antibody)”, the Kd with Human FcγRI (WT) (human) [1] was determined as 0.89 nM. Besides, the stoichiometry N (IgG1 WT:FcγRI) in the test with Human FcγRI (WT) (human) [2] worked out at 1.

“Trastuzumab ΔP230 (IgG1 with deletion of Pro230 in the lower hinge) (antibody)” came in with a Kd with Human FcγRI (WT) (human) [1] of 23.5 nM. For the same substance, in test [3], the ratio monomer:dimer (monomer:dimer) turned out to be 6. For the same substance, the stoichiometry N (ΔP230:FcγRI (mol:mol)) with Human FcγRI (WT) (human) [2] is 1 and 2.

In turn, “Trastuzumab CSCS (IgG1 with the double substitution Cys226Ser and Cys229Ser) (antibody)” registered a Kd with Human FcγRI (WT) (human) [1] of 0.92 nM.
